This is an account of results in PMC9207808 (ACS Chemical Biology, 2022).

Experiment [1] has as its target Doc1-122–His6 (DocSTm toxin) (Salmonella typhimurium). The experiment can be described thus: SPR; Biacore S200; Doc-His6 captured on a Series S NTA chip (200-400 RU); peptide as analyte, single-cycle kinetics, six concentrations (3-fold dilutions), 30 uL/min; 22 C; 10 mM HEPES, 500 mM NaCl, 50 uM EDTA, 0.005% TWEEN 20, pH 8.0; kinetic 1:1 fit. Background: Surface plasmon resonance follows binding to a sensor surface in real time, without labels.

For experiment [2] the target is unchanged. The description is as above. This is another data set of the same source.
For experiment [3] the target is unchanged. Described as above. The source holds these as a separate data set.
For experiment [4] the target is unchanged. Described as above. This is another data set of the same source.
For experiment [5] the target is unchanged. The description is as above. The source holds these as a separate data set.
Experiment [6] shares this target. Described as above. The source holds these as a separate data set.
The target is the same in experiment [7]. The experiment can be described thus: SPR; Biacore S200; Doc-His6 captured on NTA chip; peptide as analyte, multi-cycle experiments up to 500 nM; 22 C; 10 mM HEPES, 500 mM NaCl, 50 uM EDTA, 0.005% TWEEN 20, pH 8.0; steady-state 1:1 fit.
For experiment [8] the target is unchanged. Described as above. The source holds these as a separate data set.
Experiment [9] has the same target. The experiment can be described thus: SPR; Biacore S200; Doc-His6 captured on a Series S NTA chip (200-400 RU); peptide as analyte, single-cycle kinetics, six concentrations (3-fold dilutions), 30 uL/min; 22 C; 10 mM HEPES, 500 mM NaCl, 50 uM EDTA, 0.005% TWEEN 20, pH 8.0; kinetic 1:1 fit. The source holds these as a separate data set.
Experiment [10] has the same target. Described as above. This is another data set of the same source.
For experiment [11] the target is unchanged. The experiment is described as above. This is another data set of the same source.
For experiment [12] the target is unchanged. Described as above. This is another data set of the same source.
Experiment [13] shares this target. Described as above. This is another data set of the same source.
Experiment [14] shares this target. The experiment is described as above. The source holds these as a separate data set.
Experiment [15] shares this target. The experiment is described as above. This is another data set of the same source.
Experiment [16] has the same target. The experiment is described as above. This is another data set of the same source.
Experiment [17] shares this target. The description is as above. The source holds these as a separate data set.
Experiment [18] has as its target Doc toxin of Salmonella enterica serovar Typhimurium (DocSTm) (Salmonella enterica serovar Typhimurium). The experiment can be described thus: SPR; DocSTm immobilised on a Series S NTA chip; analytes in multicycle kinetics, kinetic and/or steady-state 1:1 fit (steady-state for peptide 14); 22 °C; 10 mM HEPES, 500 mM NaCl, 50 μM EDTA, 0.005% TWEEN 20, pH 8.0.

Values joined by “and” are separate entries in the source; they are usually repeats but may differ in a detail not shown here. Equal entries are not always repeated. Where two headings read alike, the source gives them in different places. No end group written: not given here.

The term Kd denotes the equilibrium constant for the complex coming apart. A high value points to weaker binding. As a reminder, the koff is a measure of how fast the partners let go of each other. A higher koff goes with fast dissociation. A word on the kon: it is the rate constant with which the complex forms. A higher kon goes with fast association. In the case of peptide 2 (PhdSTm52-73-M52A), in experiment [1], the dissociation constant Kd is 0.0523 nM and 0.0478 nM and 0.0551 nM; the koff was 5.44e-05 s⁻¹ and 5.13e-05 s⁻¹ and 7.14e-05 s⁻¹; the kon was 1.04e+06 M⁻¹ s⁻¹ and 1.07e+06 M⁻¹ s⁻¹ and 1.3e+06 M⁻¹ s⁻¹. In [2], this molecule showed a Kd of 0.052 nM, a koff of 5.9e-05 s⁻¹ and a kon of 1.14e+06 M⁻¹ s⁻¹.

On to peptide 3 (PhdSTm52-73-D53A), for which, in experiment [3], the dissociation constant Kd is 0.0121 nM and 0.0166 nM and 0.00992 nM; the off-rate constant (koff) was 6.65e-05 s⁻¹ and 8.25e-05 s⁻¹ and 4.72e-05 s⁻¹; the on-rate constant (kon) is 5.48e+06 M⁻¹ s⁻¹ and 4.98e+06 M⁻¹ s⁻¹ and 4.76e+06 M⁻¹ s⁻¹. In [2], this molecule yielded a koff of 6.5e-05 s⁻¹ and an association rate constant (kon) of 5.07e+06 M⁻¹ s⁻¹.

peptide 4 (PhdSTm52-73-D54A): in experiment [4], the Kd is 0.0128 nM and 0.0166 nM and 0.0101 nM; the koff was 8.12e-05 s⁻¹ and 4.76e-05 s⁻¹ and 5.84e-05 s⁻¹; the kon is 4.89e+06 M⁻¹ s⁻¹ and 4.73e+06 M⁻¹ s⁻¹ and 4.58e+06 M⁻¹ s⁻¹. In experiment [2], this molecule yielded a koff of 6.2e-05 s⁻¹ and a kon of 4.73e+06 M⁻¹ s⁻¹.

With peptide 5 (PhdSTm52-73-E55A), in [2], the dissociation constant Kd is 0.049 nM, the koff came out at 7.5e-05 s⁻¹ and the on-rate constant (kon) amounted to 1.54e+06 M⁻¹ s⁻¹. In addition, in experiment [5], the Kd is 0.0489 nM and 0.0513 nM and 0.0469 nM; the koff was 7.11e-05 s⁻¹ and 7.49e-05 s⁻¹ and 8.02e-05 s⁻¹; the kon was 1.5e+06 1/(M s) (2×) and 1.7e+06 1/(M s).

In experiment [2], peptide 6 (PhdSTm52-73-F56A) came in with a koff of 0.000843 s⁻¹ and an on-rate constant (kon) of 989000 M⁻¹ s⁻¹. In [6], the equilibrium dissociation constant (Kd) is 1 nM and 0.919 nM and 0.745 nM; the dissociation rate constant (koff) is 0.000717 s⁻¹ and 0.000702 s⁻¹ and 0.00111 s⁻¹; the association rate constant (kon) is 714000 M⁻¹ s⁻¹ and 764000 M⁻¹ s⁻¹ and 1.49e+06 M⁻¹ s⁻¹.

Consider peptide 7 (PhdSTm52-73-I59A), for which the dissociation constant (Kd) in experiment [7] was 19.9 nM; in experiment [8] it was 25.4 nM and 19.4 nM and 15.1 nM.

With peptide 8 (PhdSTm52-73-M60A), in [9], the Kd was 0.67 nM and 0.611 nM and 0.485 nM; the dissociation rate constant (koff) was 0.000966 s⁻¹ and 0.00091 s⁻¹ and 0.00181 s⁻¹; the kon was 1.44e+06 M⁻¹ s⁻¹ and 1.49e+06 M⁻¹ s⁻¹ and 3.73e+06 M⁻¹ s⁻¹. Moreover, in [2], the dissociation constant Kd came out at 0.553 nM, the koff was determined as 0.00122 s⁻¹ and the association rate constant (kon) stood at 2.22e+06 M⁻¹ s⁻¹.

Consider peptide 9 (PhdSTm52-73-V62A), for which, in experiment [10], the Kd was 0.183 nM and 0.239 nM and 0.132 nM; the koff was 0.000329 s⁻¹ and 0.000394 s⁻¹ and 0.000442 s⁻¹; the kon was 1.8e+06 M⁻¹ s⁻¹ and 1.65e+06 M⁻¹ s⁻¹ and 3.35e+06 M⁻¹ s⁻¹. In addition, in [2], the dissociation constant (Kd) came out at 0.171 nM, the koff was found to be 0.000388 s⁻¹ and the on-rate constant (kon) worked out at 2.27e+06 M⁻¹ s⁻¹.

As to peptide 10 (PhdSTm52-73-H63A), the Kd in experiment [7] is 21.8 nM; in [8], 12.2 nM and 13.1 nM and 40 nM.

On to peptide 11 (PhdSTm52-73-G64A), for which, in experiment [11], the Kd is 0.13 nM and 0.0743 nM and 0.0769 nM; the koff was 1.42e-05 s⁻¹ and 2.28e-05 s⁻¹ and 2.23e-05 s⁻¹; the kon is 1.08e+06 M⁻¹ s⁻¹ and 3.07e+06 M⁻¹ s⁻¹ and 2.9e+06 M⁻¹ s⁻¹. For the same molecule, in experiment [2], the dissociation constant Kd was determined as 0.084 nM, the koff was 0.000197 s⁻¹ and the kon was 2.35e+06 M⁻¹ s⁻¹.

As for peptide 13 (PhdSTm52-73-E66A), in experiment [12], the Kd was 0.0475 nM and 0.0451 nM and 0.0352 nM; the koff was 7.15e-05 s⁻¹ and 0.000147 s⁻¹ and 0.000118 s⁻¹; the kon is 1.5e+06 M⁻¹ s⁻¹ and 3.26e+06 M⁻¹ s⁻¹ and 3.35e+06 M⁻¹ s⁻¹. Also, in experiment [2], the Kd was 0.042 nM, the off-rate (koff) stood at 0.000112 s⁻¹ and the kon was 2.7e+06 M⁻¹ s⁻¹.

Take peptide 14 (PhdSTm52-73-L67A): the Kd in experiment [7] is 21.4 nM; in experiment [8] it was 25 nM and 23.9 nM and 15.4 nM.

For peptide 15 (PhdSTm52-73-R68A), in [13], the Kd was 0.124 nM and 0.106 nM and 0.112 nM; the koff was 0.000244 s⁻¹ and 0.000166 s⁻¹ and 0.000144 s⁻¹; the kon was 1.95e+06 M⁻¹ s⁻¹ and 1.57e+06 M⁻¹ s⁻¹ and 1.29e+06 M⁻¹ s⁻¹. In experiment [2], this molecule had a dissociation constant (Kd) of 0.115 nM, a koff of 0.000185 s⁻¹ and a kon of 1.6e+06 M⁻¹ s⁻¹.

For peptide 16 (PhdSTm52-73-E69A), in [14], the Kd was 0.0687 nM and 0.0703 nM and 0.0518 nM; the koff is 0.000151 s⁻¹ and 0.000169 s⁻¹ and 8.97e-05 s⁻¹; the kon is 2.2e+06 M⁻¹ s⁻¹ and 2.37e+06 M⁻¹ s⁻¹ and 1.73e+06 M⁻¹ s⁻¹. In [2], this molecule showed a dissociation constant Kd of 0.065 nM, a dissociation rate constant (koff) of 0.000136 s⁻¹ and a kon of 2.1e+06 M⁻¹ s⁻¹.

Take peptide 17 (PhdSTm52-73-L70A): in experiment [15], the Kd is 2.1 nM and 1.98 nM and 1.02 nM; the dissociation rate constant (koff) was 0.00602 s⁻¹ and 0.00634 s⁻¹ and 0.00554 s⁻¹; the on-rate (kon) is 2.87e+06 M⁻¹ s⁻¹ and 3.2e+06 M⁻¹ s⁻¹ and 5.44e+06 M⁻¹ s⁻¹. In experiment [2], this molecule displayed an off-rate constant (koff) of 0.00597 s⁻¹ and a kon of 3.84e+06 M⁻¹ s⁻¹.

Consider peptide 18 (PhdSTm52-73-D72A), for which, in experiment [16], the Kd is 0.0532 nM and 0.0189 nM and 0.0385 nM; the dissociation rate constant (koff) was 7.43e-05 s⁻¹ and 5.67e-05 s⁻¹ and 0.00012 s⁻¹; the on-rate constant (kon) was 1.4e+06 M⁻¹ s⁻¹ and 3.01e+06 M⁻¹ s⁻¹ and 3.12e+06 M⁻¹ s⁻¹. In [2], this molecule gave a Kd of 0.033 nM, a koff of 8.4e-05 s⁻¹ and an on-rate (kon) of 2.51e+06 M⁻¹ s⁻¹.

For peptide 20 (PhdSTm52-71), in [2], the dissociation constant (Kd) came to 0.428 nM, the off-rate constant (koff) was found to be 0.000393 s⁻¹ and the kon came out at 917000 M⁻¹ s⁻¹. In experiment [17], the Kd is 0.447 nM and 0.414 nM and 0.424 nM; the koff is 0.000413 s⁻¹ and 0.000387 s⁻¹ and 0.000378 s⁻¹; the kon is 925000 M⁻¹ s⁻¹ and 934000 M⁻¹ s⁻¹ and 891000 M⁻¹ s⁻¹.

Ac-WMDDEFAAAMAVHGNELRELADK [peptide 7 (Phd 52-73 I59A)] registered a Kd in experiment [18] of 20 nM. That is a double-digit nanomolar value.

On to Ac-WMDDEFAAIMAVAGNELRELADK [peptide 10 (Phd 52-73 H63A)], for which the dissociation constant Kd in [18] came out at 20 nM.

Take Ac-WMDDEFAAIMAVHGNEARELADK [peptide 14 (Phd 52-73 L67A)]: the Kd in experiment [18] stood at 20 nM. This counts as double-digit nanomolar.
